Where no end group is shown, it is not given here.

The target in this assay is T1, recombinant human soluble TNF receptor inhibitor/Fc chimera (rHusTNFRI) (human, UniProt P19438 30-211).
T1 construct: Bought from Prospec-Tany TechnoGene; Only the soluble part stood in the assay; also called TNF-R1; immobilised rHusTNFRI; not shown: Fc part of human IgG1; 6x histidine tag on the Fc part
T1 sequence: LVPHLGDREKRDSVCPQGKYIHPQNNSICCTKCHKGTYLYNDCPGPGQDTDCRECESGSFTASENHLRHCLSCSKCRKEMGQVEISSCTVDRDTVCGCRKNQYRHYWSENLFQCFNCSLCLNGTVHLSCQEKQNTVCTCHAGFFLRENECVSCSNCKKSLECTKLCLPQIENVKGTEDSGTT
Nature of the assay: solid-phase competition ELISA: unlabelled TNF70-80 against 10 µM biotinylated TNF70-80 on immobilised rHusTNFRI. For orientation: An ELISA detects its analyte on a solid surface through an enzyme-linked reagent.

B1: TNF70-80 (Pro-Ser-Thr-His-Val-Leu-Ile-Thr-His-Thr-Ile-OH) (peptide)
peptide: PSTHVLITHTI-OH
notes: 4; also called Peptide A; TNF mimetic peptide
Usually IC50 stands for the point on the concentration scale where inhibition reaches its midpoint. The term Kd denotes the concentration at which binding is half-saturated. Turning to B1, the IC50 was roughly 21 µM and the Kd was found to be 90 µM.

The record behind these values is patent US20090291899A1 (published 2009).
